Results: patent publication US20220177587A1, “METHODS AND USES OF VARIANT CD80 FUSION PROTEINS AND RELATED CONSTRUCTS” (Alpine Immune Sciences, Inc., priority 2018, published 2022)

Experiments:
CD28 [1] = biological target: T1, CD28 (Homo sapiens, UniProt P10747); experiment: Jurkat/IL2 + CHO/OKT3 +/- PD-L1 reporter assay: PD-L1-dependent CD28 costimulation; format: cell-based; design: host or cells: Jurkat cells expressing an IL-2-luciferase reporter; details: Jurkat/IL2 + CHO/OKT3/PD-L1
Procedure, shortened: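 Jurkat reporter cells (100,000/well) preincubated 15 min at room temperature with test protein, then cocultured 5 h at 37 °C with CHO aAPCs bearing anti-CD3 scFv (OKT3) with or without PD-L1. Luciferase luminescence (RLU) read after lysis-substrate addition.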

huPD-L1 = huPD-L1 (Homo sapiens, UniProt Q9NZQ7); experiment: Flow binding to CHO cells stably expressing PD-L1; design: huCTLA4 and huPD-L1, full-length mammalian surface expression constructs were generated; expressed in transfected cells; host or cells: CHO cells, lentiviral transduction, sorted to >98% purity; details: for PD-L1 MFI at 33.3 nM: CHO cells stably expressing PD-L1
Procedure, shortened: (§1)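 Fusion proteins bound to CHO cells stably expressing CTLA4 or PD-L1, or to Jurkat/IL2 reporter cells with endogenous CD28, for 45 min on ice after blocking in PBS/1% BSA. Detection with PE anti-human Fc by flow cytometry; PE MFI per cell type and binding EC50 determined.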

huCTLA4 = huCTLA4 (Homo sapiens, UniProt P16410); experiment: Flow binding to CHO cells stably expressing CTLA4; design: huCTLA4 and huPD-L1, full-length mammalian surface expression constructs were generated; expressed in transfected cells; host or cells: CHO cells, lentiviral transduction, sorted to >98% purity; details: for CTLA4 MFI at 33.3 nM: CHO cells stably expressing CTLA4
Procedure, shortened: as §1

CD28 [2] = biological target: T1, CD28; experiment: Flow binding to Jurkat/IL2 reporter cells (CD28); design: host or cells: Jurkat cells expressing an IL-2-luciferase reporter
Procedure, shortened: as §1

[3] = Table E10, 33.3 nM, relative to CD80 WT IgV-Fc
[4] = Table E10, binding to PD-L1 compared to binding to CD28
[5] = Table E10, 33.3 nM, Jurkats (CD28)
[6] = Table E20, Jurkats (CD28), 33.3 nM
[7] = Table E19, Jurkats (CD28), 33.3 nM
[8] = Table E19, MFI at 33.3 nM relative to WT CD80 ECD-Fc (Abcam)
[9] = Table E23, CD80 IgV-Fc (inert) at 33.3 nM
[10] = Table E23, CD80 IgV-Fc (inert) at 33.3 nM, Jurkat (CD28)

Sequence of huCTLA4 (P16410 36-223): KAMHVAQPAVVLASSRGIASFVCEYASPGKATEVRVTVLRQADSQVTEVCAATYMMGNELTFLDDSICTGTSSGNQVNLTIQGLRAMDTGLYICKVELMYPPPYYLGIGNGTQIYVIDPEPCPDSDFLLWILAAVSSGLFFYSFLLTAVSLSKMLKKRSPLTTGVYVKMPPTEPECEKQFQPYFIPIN
Sequence of huPD-L1 (Q9NZQ7 19-290): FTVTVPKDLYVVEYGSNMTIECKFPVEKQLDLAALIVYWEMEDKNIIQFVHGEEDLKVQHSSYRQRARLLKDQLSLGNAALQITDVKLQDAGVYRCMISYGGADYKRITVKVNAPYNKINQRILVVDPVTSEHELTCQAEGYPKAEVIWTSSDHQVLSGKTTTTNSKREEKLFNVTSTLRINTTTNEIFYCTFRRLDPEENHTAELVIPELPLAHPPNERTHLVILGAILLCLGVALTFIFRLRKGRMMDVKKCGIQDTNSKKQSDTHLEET

Fold Increase over WT CD80-IgV-Fe (CD28 [1]; Table E12, 5.0 nM) | Relative Luciferase Units (RLU), CD80 Cone 5.0 nM (CD28 [1]; Table E12, 5.0 nM) [RLU] | PD-L1 MFI at 33.3 nM (huPD-L1; Table E10, 33.3 nM) | PD-L1 Fold change to WT CD80 (huPD-L1; [3]) | Ratio of PDL1:CD28 (huPD-L1; [4]) | CTLA4 MFI at 33.3 nM (huCTLA4; Table E10, 33.3 nM) | CTLA4 Fold change to WT CD80 (huCTLA4; [3]) | CD28 MFI at 33.3 nM (CD28 [2]; [5]) | CD28 Fold change to WT CD80 (CD28 [2]; [3]) | Molecule | also measured
4.0 | 1601 | 7328 | 104.2 | 6 | 28420 | 14.8 | 1325 | 20.1 | D46V/M47I/A71G (protein) VIHVTKEVKEVATLSCGHNVSVEELAQTRIYWQKEKKMVLTMMSGVINIWPEYKNRTIFDITNNLSIVILGLRPSDEGTYECVVLKYEKDAFKREHLAEVTLSVKAD | 
4.7 | 1898 | 7582 | 107.9 | 14 | 24218 | 12.6 | 528 | 8.0 | H18Y/E35D/M47L/A71G/A91S (protein) VIHVTKEVKEVATLSCGYNVSVEELAQTRIYWQKDKKMVLTMMSGDLNIWPEYKNRTIFDITNNLSIVILGLRPSDEGTYECVVLKYEKDSFKREHLAEVTLSVKAD | 
4.4 | 1762 | 5097 | 72.5 | 6 | 27768 | 14.5 | 823 | 12.5 | M47I/A71G (protein) VIHVTKEVKEVATLSCGHNVSVEELAQTRIYWQKEKKMVLTMMSGDINIWPEYKNRTIFDITNNLSIVILGLRPSDEGTYECVVLKYEKDAFKREHLAEVTLSVKAD | 
 |  |  |  |  |  |  |  |  | H18Y/A26E/A71G/D90G (protein) VIHVTKEVKEVATLSCGYNVSVEELEQTRIYWQKEKKMVLTMMSGDMNIWPEYKNRTIFDITNNLSIVILGLRPSDEGTYECVVLKYEKGAFKREHLAEVTLSVKAD | Relative Luciferase Units (RLU), CD80 Conc 5.0 nM (CD28 [1]; Table E22, CD80 Conc 5.0 nM): 933 RLU; CTLA4 MFI at 33.3 nM (huCTLA4; Table E20, 33.3 nM): 19878; CD28 MFI at 33.3 nM (CD28 [2]; [6]): 2001
 |  |  |  |  |  |  |  |  | E35D/V68M/A71G/D90G (protein) VIHVTKEVKEVATLSCGHNVSVEELAQTRIYWQKDKKMVLTMMSGDMNIWPEYKNRTIFDITNNLSIMILGLRPSDEGTYECVVLKYEKGAFKREHLAEVTLSVKAD | Relative Luciferase Units (RLU), CD80 Conc 5.0 nM (CD28 [1]; Table E22, CD80 Conc 5.0 nM): 990 RLU; CTLA4 MFI at 33.3 nM (huCTLA4; Table E20, 33.3 nM): 23290; CD28 MFI at 33.3 nM (CD28 [2]; [6]): 2843
4.1 | 1641 | 7763 | 110.4 | 8 | 23292 | 12.2 | 1000 | 15.2 | M43I/M47L/A71G (protein) VIHVTKEVKEVATLSCGHNVSVEELAQTRIYWQKEKKMVLTMISGDLNIWPEYKNRTIFDITNNLSIVILGLRPSDEGTYECVVLKYEKDAFKREHLAEVTLSVKAD | 
 |  |  |  |  |  |  |  |  | M47V/V68M/K89N (protein) VIHVTKEVKEVATLSCGHNVSVEELAQTRIYWQKEKKMVLTMMSGDVNIWPEYKNRTIFDITNNLSIMILALRPSDEGTYECVVLKYENDAFKREHLAEVTLSVKAD | Relative Luciferase Units (RLU), CD80 Conc 5.0 nM (CD28 [1]; Table E21, CD80 Conc 5.0 nM): 862 RLU; CTLA4 MFI at 33.3 nM (huCTLA4; Table E19, 33.3 nM): 24787; CD28 MFI at 33.3 nM (CD28 [2]; [7]): 1324
3.7 | 1475 | 7138 | 101.5 | 36 | 26878 | 14.0 | 200 | 3.0 | E35D/M43I/D46E/A71G/L85M (protein) VIHVTKEVKEVATLSCGHNVSVEELAQTRIYWQKDKKMVLTMISGEMNIWPEYKNRTIFDITNNLSIVILGLRPSDEGTYECVVMKYEKDAFKREHLAEVTLSVKAD | 
5.2 | 2078 | 5627 | 80.0 | 7 | 25859 | 13.5 | 816 | 12.4 | E35D/M47I/N48K/I61F (protein) VIHVTKEVKEVATLSCGHNVSVEELAQTRIYWQKDKKMVLTMMSGDIKIWPEYKNRTIFDFTNNLSIVILALRPSDEGTYECVVLKYEKDAFKREHLAEVTLSVKAD | 
3.4 | 1353 | 2935 | 41.7 | 6 | 20893 | 10.9 | 461 | 7.0 | E35D/M47V (protein) VIHVTKEVKEVATLSCGHNVSVEELAQTRIYWQKDKKMVLTMMSGDVNIWPEYKNRTIFDITNNLSIVILALRPSDEGTYECVVLKYEKDAFKREHLAEVTLSVKAD | Fold Increase over WT CD80-IgV-Fe (CD28 [1]; Table E21, 5.0 nM): 4.7 fold; Relative Luciferase Units (RLU), CD80 Conc 5.0 nM (CD28 [1]; Table E21, CD80 Conc 5.0 nM): 543 RLU; PD-L1 MFI at 33.3 nM (huPD-L1; Table E19, 33.3 nM): 6796; PD-L1 Fold change to WT CD80 (huPD-L1; [8]): 53.1 fold; Ratio of PDL1:CD28 (huPD-L1; Table E19, ratio of MFI at 33.3 nM): 13.6; CTLA4 MFI at 33.3 nM (huCTLA4; Table E19, 33.3 nM): 44569; CTLA4 Fold change to WT CD80 (huCTLA4; [8]): 1.1 fold; CD28 MFI at 33.3 nM (CD28 [2]; [7]): 501; CD28 Fold change to WT CD80 (CD28 [2]; [8]): 0.7 fold
3.8 | 1513 | 8312 | 118.2 | 42 | 16609 | 8.7 | 199 | 3.0 | E35D/M47L/A71G/L85M (protein) VIHVTKEVKEVATLSCGHNVSVEELAQTRIYWQKDKKMVLTMMSGDLNIWPEYKNRTIFDITNNLSIVILGLRPSDEGTYECVVMKYEKDAFKREHLAEVTLSVKAD | 
 |  |  |  |  |  |  |  |  | A26P/E35D/M47I/V68M/A71G/D90G (protein, UniProt P33681 35-288, looked up, variant A26P E35D M47I V68M A71G D90G) T-lymphocyte activation …: VIHVTKEVKEVATLSCGHNVSVEELPQTRIYWQKDKKMVLTMMSGDINIWPEYKNRTIFDITNNLSIMILGLRPSDEGTYECVVLKYEKGAFKREHLAEVTLSVKADFPTPSISDFEIPTSNIRRIICSTSGGFPEPHLSWLENGEELNAINTTVSQDPETELYAVSSKLDFNMTTNHSFMCLIKYGHLRVNQTFNWNTTKQEHFPDNLLPSWAITLISVNGIFVICCLTYCFAPRCRERRRNERLRRESVRPV | Relative Luciferase Units (RLU), CD80 Conc 5.0 nM (CD28 [1]; Table E24, 5.0 nM): 823 RLU; CTLA4 MFI at 33.3 nM (huCTLA4; [9]): 19761; CD28 MFI at 33.3 nM (CD28 [2]; [10]): 8189
 |  |  |  |  |  |  |  |  | H18F/A26P/E35D/M47I/V68M/A71G/D90G (protein, UniProt P33681 35-288, looked up, variant H18F A26P E35D M47I V68M A71G D90G) T-lymphocyte activation …: VIHVTKEVKEVATLSCGFNVSVEELPQTRIYWQKDKKMVLTMMSGDINIWPEYKNRTIFDITNNLSIMILGLRPSDEGTYECVVLKYEKGAFKREHLAEVTLSVKADFPTPSISDFEIPTSNIRRIICSTSGGFPEPHLSWLENGEELNAINTTVSQDPETELYAVSSKLDFNMTTNHSFMCLIKYGHLRVNQTFNWNTTKQEHFPDNLLPSWAITLISVNGIFVICCLTYCFAPRCRERRRNERLRRESVRPV | Relative Luciferase Units (RLU), CD80 Conc 5.0 nM (CD28 [1]; Table E24, 5.0 nM): 926 RLU; CTLA4 MFI at 33.3 nM (huCTLA4; [9]): 23932; CD28 MFI at 33.3 nM (CD28 [2]; [10]): 4801
